{"source": "paper PMC11543891", "about": "“Expression, purification, and characterization of diacylated Lipo-YcjN from Escherichia coli” (The Journal of Biological Chemistry, 2024)", "target": "the molecule itself", "assay": "SEC; Hiload 16/600 Superdex 200 pg, 25 mM Tris-HCl pH 7.5, 100 mM NaCl, run without LMNG and with 0.01% LMNG; elution volumes compared with gel filtration standards", "data": [{"protein": "Lipo-YcjN (diacylated lipoprotein form of E. coli YcjN, from the construct SP-YcjN-10H) (natural protein, E. coli K-12, UniProt P76042 21-430, looked up, diacylated at cysteine 21 (S-diacylglyceryl-cysteine, the new N terminus), acyl chain compositions [16:0, 16:0] and [16:0, 18:1], YcjN, E. coli K-12, expressed with its native N-terminal signal peptide; by intact mass the purified protein is the processed lipoprotein that begins at the diacylated cysteine 21; Expressed as the full-length precursor (SP-YcjN-10H); LC-MS masses of 46,699 and 46,726 Da fit the protein cut before C21 and diacylated; No tag removal is described; also called lipidated YcjN) CKEENKTNVSIEFMHSSVEQERQAVISKLIARFEKENPGITVKQVPVEEDAYNTKVITLSRSGSLPEVIETSHDYAKVMDKEQLIDRKAVATVISNVGEGAFYDGVLRIVRTEDGSAWTGVPVSAWIGGIWYRKDVLAKAGLEEPKNWQQLLDVAQKLNDPANKKYGIALPTAESVLTEQSFSQFALSNQANVFNAEGKITLDTPEMMQALTYYRDLTANTMPGSNDIMEVKDAFMNGTAPMAIYSTYILPAVIKEGDPKNVGFVVPTEKNSAVYGMLTSLTITAGQKTEETEAAEKFVTFMEQADNIADWVMMSPGAALPVNKAVVTTATWKDNDVIKALGELPNQLIGELPNIQVFGAVGDKNFTRMGDVTGSGVVSSMVHNVTVGKADLSTTLQASQKKLDELIEQH", "values": [{"measurement": "binding result", "value": "binds"}]}]}
